Experimental findings from patent US20210130491A1 (ONCOTAG DIAGNOSTICS, published 2021) are described below.

In assay [1] the target is T1, co-purified MRS-AIMP3 protein (human, UniProt P56192 1-900; O43324 1-174, limits assumed).
T1 construct: MRS and AIMP3 co-expressed in E. coli BL21DE3 and co-purified
T1 sequence 1: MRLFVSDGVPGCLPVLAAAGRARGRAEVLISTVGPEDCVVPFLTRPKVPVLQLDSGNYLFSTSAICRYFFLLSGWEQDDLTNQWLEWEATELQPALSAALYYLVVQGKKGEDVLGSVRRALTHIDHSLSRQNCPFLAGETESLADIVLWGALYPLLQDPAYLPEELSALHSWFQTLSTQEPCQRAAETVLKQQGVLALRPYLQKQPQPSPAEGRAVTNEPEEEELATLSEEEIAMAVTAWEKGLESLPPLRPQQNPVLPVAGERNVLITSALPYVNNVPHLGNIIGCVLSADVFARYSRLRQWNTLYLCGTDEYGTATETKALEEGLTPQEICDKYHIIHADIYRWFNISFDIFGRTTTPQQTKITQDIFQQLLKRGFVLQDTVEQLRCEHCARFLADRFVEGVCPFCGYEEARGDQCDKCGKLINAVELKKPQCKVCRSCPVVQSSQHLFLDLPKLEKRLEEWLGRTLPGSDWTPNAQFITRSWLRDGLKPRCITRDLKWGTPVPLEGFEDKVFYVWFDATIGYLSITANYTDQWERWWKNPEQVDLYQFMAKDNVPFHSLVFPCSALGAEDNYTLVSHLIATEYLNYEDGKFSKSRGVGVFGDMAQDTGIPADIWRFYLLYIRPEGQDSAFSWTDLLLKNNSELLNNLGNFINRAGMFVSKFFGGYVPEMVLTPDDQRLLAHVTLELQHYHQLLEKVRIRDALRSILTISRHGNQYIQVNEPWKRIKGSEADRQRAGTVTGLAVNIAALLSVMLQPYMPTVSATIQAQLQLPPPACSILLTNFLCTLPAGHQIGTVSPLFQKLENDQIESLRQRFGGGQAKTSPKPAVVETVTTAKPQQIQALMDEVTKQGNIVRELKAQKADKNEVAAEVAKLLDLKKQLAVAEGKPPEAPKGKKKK
T1 sequence 2: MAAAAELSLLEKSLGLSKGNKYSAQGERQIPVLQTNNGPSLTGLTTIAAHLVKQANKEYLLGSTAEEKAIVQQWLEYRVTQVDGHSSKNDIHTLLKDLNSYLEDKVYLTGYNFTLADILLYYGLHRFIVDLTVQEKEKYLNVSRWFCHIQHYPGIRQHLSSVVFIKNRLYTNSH
In words: SPR, MRS+AIMP3 on CM5 chip, antibody flowed; 1E8 antibody; MRS+AIMP3 on the chip. The method, then: (§1) Surface plasmon resonance (SPR) experiments were carried out using 1E8 and 8A12 antibodies and MRS+AIMP3 protein obtained in Example 1.
(§2) CM5 chips were coated with MRS+AIMP3 or AIMP3 proteins and 1E8 or 8A12 antibodies were flowed at various concentrations to measure the degree of binding reaction with the proteins. Samples or buffers were injected for 8 minutes at a flow rate of 30 μl/min and washed for 20 minutes.

Assay [2] has as its target T1, co-purified MRS-AIMP3 protein. Kind of assay: SPR, CM5 chip coated with MRS+AIMP3, antibody flowed at 0.20 to 200 nM. The method, then:
as §1, §2

The target is the same in assay [3]. In words: SPR, CM5 chip coated with MRS+AIMP3, antibody flowed at 0.39 to 200 nM. As for the experimental part:
as §1, §2

Assay [4] has the same target. Kind of assay: SPR, MRS+AIMP3 on CM5 chip, antibody flowed; 8A12 antibody; MRS+AIMP3 on the chip. The method, then:
as §1, §2

B1: 1E8 antibody (1E8 IgG) (antibody, V domains shown)
VH: DVKLQESGPGLVNPSQSLSLTCTVTGYSITSDYAWNWIRQFPGNKLEWMGYISYSGRTSYKSSLKSRISITRDTSKNQFFLELNSVTTEDTATYYCARDYGNFVGYFDVWGAGTTVTVSS
VL: DIVMTQSPSSLAVSVGEKVTMSCKSSQSLLYSSNQKNYLAWYQQKPGQSPKLLIYWASTRESGVPDRFTGSGSGTEFTLTISSVKAEDLAVYYCQQYYSYPTFGGGTKLEIKA
notes: Mouse monoclonal from hybridoma clone 1E8; also called IE8; anti-MRS antibody (1E8)
In turn, B1 gave an equilibrium dissociation constant (Kd) in assay [1] of 5.42 nM. For the same molecule, in assay [2], the koff turned out to be 0.000526 s⁻¹ and the kon came out at 97100 M⁻¹ s⁻¹.

B2: 8A12 antibody (8A12 IgG) (antibody, V domains shown)
VH: DVKLQESGPGLVKPSQSLSLTCTVTGYSITSEYAWTWIRQFPGNKLEWMGYINYNGNTNLNPSLKSRISIIRDTSKNQFFLQLNSVTTEDTATYYCARSLWPRGWFAYWGQGTLVTVSA
VL: DIQMTQSPSSMYASLGERVTITCKASQDINSYLSWFQQKPGKSPKTLMYRANRLVDGVPSRFSGSGSGQDYSLTISSLEYEDMGIYYCLQYDEFPRTFGGGTKLEIKA
notes: Mouse monoclonal from hybridoma clone 8A12; also called 8Al2; anti-MRS antibody (8A12)
B2: in assay [3], the koff amounted to 0.000213 s⁻¹ and the kon is 137000 M⁻¹ s⁻¹. In assay [4], this molecule displayed a dissociation constant Kd of 1.56 nM.
